Legend:
[1] = molecular target: Protein A, MabSelect Sure (protein A affinity resin ligand); assay: resin slurry partitioning on MabSelect Sure protein A resin; reference Ab6; Elute: 20 mM NaAcetate, pH 3.5
[2] = molecular target: Protein A, MabSelect Sure (protein A affinity resin ligand); assay: resin slurry partitioning on MabSelect Sure protein A resin; reference Ab6; Strip: 100 mM acetic acid
[3] = molecular target: Protein A, MabSelect Sure (protein A affinity resin ligand); assay: resin slurry partitioning on MabSelect Sure protein A resin; reference Ab6; High salt wash: 10 mM NaPhosphate, pH 6.5, 0.5M NaCl
[4] = molecular target: Protein A, MabSelect Sure (protein A affinity resin ligand); assay: resin slurry partitioning on MabSelect Sure protein A resin; reference Ab6; Equil/wash: 10 mM NaPhosphate, pH 6.5

Row | log α (log Kp PLBL2 - log Kp Ab6) [1] | log α (log Kp PLBL2 - log Kp Ab6) [2] | log α (log Kp PLBL2 - log Kp Ab6) [3] | log α (log Kp PLBL2 - log Kp Ab6) [4] | Substance
1 | -0.3 |  |  |  | PLBL2
2 |  | 0 | -2 | -2 | PLBL2 (enzyme)

From patent US20230077205A1
